Assay results as given in PMC7065722 (Biochemistry, 2019).

test system: O=C(O)C[C@H](O)C(=O)O; test: crystal structure; type: biochemical, Leishmania major; conditions: [4Fe-4S] cluster active site, same binding mode as wild type

Compound | Km [mM] | Vmax [µmol/min/mg] | kcat [s⁻¹] | kcat/Km [M⁻¹ s⁻¹]
LmFH-2-H334A (Leishmania major; H334A) | 4.6 ± 0.1 | 52 | 57.6 ± 0.4 | 12500 ± 400
LmFH-2-R421A (Leishmania major; R421A) | 4.1 ± 0.3 | 0.13 | 0.144 ± 0.002 | 35 ± 3
LmFH-2-R471A (Leishmania major; R471A) | 4.3 ± 0.2 | 0.034 | 0.038 ± 0.001 | 9 ± 1
LmFH-2-T467A (Leishmania major; T467A) | 4.4 ± 0.2 | 0.047 | 0.052 ± 0.001 | 12 ± 1

biological target: T1, LmFH-2 (cytosolic class I fumarate hydratase) (Leishmania major, UniProt E9AE57); test: crystal structure at […] Å; type: biochemical; conditions: not given
T1 sequence (E9AE57 1-568): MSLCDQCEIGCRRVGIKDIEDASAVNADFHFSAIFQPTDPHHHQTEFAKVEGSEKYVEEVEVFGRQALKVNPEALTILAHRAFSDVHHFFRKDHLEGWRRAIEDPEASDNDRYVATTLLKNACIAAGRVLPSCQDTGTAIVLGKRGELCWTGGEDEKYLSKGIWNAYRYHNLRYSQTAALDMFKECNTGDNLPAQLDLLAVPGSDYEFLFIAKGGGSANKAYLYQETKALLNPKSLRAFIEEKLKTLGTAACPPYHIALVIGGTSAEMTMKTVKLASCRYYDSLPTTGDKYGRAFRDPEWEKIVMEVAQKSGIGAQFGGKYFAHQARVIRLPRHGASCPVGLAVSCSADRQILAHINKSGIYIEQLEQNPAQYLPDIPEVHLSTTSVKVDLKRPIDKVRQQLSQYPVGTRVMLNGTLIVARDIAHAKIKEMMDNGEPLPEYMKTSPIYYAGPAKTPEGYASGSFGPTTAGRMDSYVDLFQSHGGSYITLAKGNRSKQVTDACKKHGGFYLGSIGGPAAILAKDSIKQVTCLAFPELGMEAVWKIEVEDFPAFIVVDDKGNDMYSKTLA

Compound | IC50 [mM]
O=C(O)CCC(=O)O [succinate] | 34.2 ± 1.2

biological target: T2, LmFH-2-R173A (Leishmania major, UniProt E9AE57, R173A); test: not given; conditions: not given
T2 sequence (E9AE57 1-568 R173A): T1 sequence (E9AE57 1-568)

Compound | Km [mM]
O=C(O)/C=C/C(=O)O [fumarate] | 2.6 ± 0.6
